For 2 variants, screen value results are on record in paper PMC9427776, “TTYH family members form tetrameric complexes at the cell membrane” (Communications Biology, 2022).

B1: mTTYH3-EGFP (HEK 293, pEGFP-N1) [mouse] / itself (parent)
chain: MAGVSYAAPWWVSLLHRLPHFDLRWEATSSQFRPEDADYQQALLLLGATALACLALDLLFLLFYSFWLCCRRRKTDEHLDADCCCTAWCVIITTLVCSAGIAVGFYGNGETSDGIHRATYSLRHANRTVAGVQDRVWDTAAALNRTAEPNLQSLERQLAGRQEPLRAVQRLQTLLGTLLGYTAAIPFWRNPGVSLEVLAEQVDLYDWYRWLGYLGLLLLDVIICLLVLVGLIRSSKGILVGVCLLGVLALVISWGALGLELAVSVGSSDFCVDPDTFVTKMVEEHSVLSGDILQYYLACSPRATNPFQQKLSGSHKALVEMQDVVAELLRNVPREHPATKDPLLRVQEVLNGTEVNLQHLTALVDCRSLHLDYVQALTGFCYDGVEGLIYLALFSFVTALMFSSIVCSIPHTWQQKRGPDDDGEEETAPGPRQAHDSLYRVHMPSLYSCGSSYGSEASIPAAAHTVSNAPVTEYMSQNANFQNPRCENTPLIGRESPPPSYTSSMRAKYLATSQPRPDSSGSGH

In the assay the parent is B1. In words: FSEC. Particulars: with itself; DDM solubilized HEK 293 cells; n = 3; parent: 0.98; read off a plot.
For chain 1 C366A, the screen value is 0.25.
The value for chain 1 C299A was 0.27.
